The results in this text go back to paper PMC6331586, “Rapid determination of quaternary protein structures in complex biological samples” (Nature Communications, 2019).

This test concerns the target human serum albumin (human, UniProt P02768 25-609). Kind of test: cross-linking. Conditions: both partners purified.

B1: M1 protein (amino acids 42–484), recombinant (domain or fragment)
chain: NGDGNPREVIEDLAANNPAIQNIRLRYENKDLKARLENAMEVAGRDFKRAEELEKAKQALEDQRKDLETKLKELQQDYDLAKESTSWDRQRLEKELEEKKEALELAIDQASRDYHRATALEKELEEKKKALELAIDQASQDYNRANVLEKELETITREQEINRNLLGNAKLELDQLSSEKEQLTIEKAKLEEEKQISDASRQSLRRDLDASREAKKQVEKDLANLTAELDKVKEDKQISDASRQGLRRDLDASREAKKQVEKDLANLTAELDKVKEEKQISDASRQGLRRDLDASREAKKQVEKALEEANSKLAALEKLNKELEESKKLTEKEKAELQAKLEAEAKALKEQLAKQAEELAKLRAGKASDSQTPDTKPGNKAVPGKGQAPQAGTKPNQNKAPMKETKRQLPSTGETANPFFTAAALTVMATAGVAAVVKRKEEN
notes: source: E. coli BL21 (DE3), purified (fibrinogen column, Ni-coupled Imac Sepharose)
Regarding B1, the binding result is reported as “binds”.
